{"source": "the DeepSol protein solubility set", "data": [{"assay": "soluble on expression in E. coli; label from the status in PepcDB or PDB records", "values": [{"sequence": "MGSDKIHHHHHHMESENQEYQNEADLLSKQEEWCDEEFQEEDSFDIKEYDITTSPNDFNTKTMFDFIESGAVKIPGFQRNYVWDIKRASKLIESIIIGLPVPQIFLYEEARNRFLVIDGQQRLMSIYYFVKQRFPIYEKRIELRHIFDENGKIPGEVLHNDKYFTKFNLQLPSRLSNQRNKLHSLNYSTLDEYKITFDLRTIRNIIIKQNFPSDDNSSIYEVFNRLNSGGMNLKPQEIRASLYHSDFYTMLYRINALPEWRKIVGVEPDLHMKDIEILLRGFAMLVKGTEYKPSMAKFLNEFSSGCKKLEAQKIQYLEELFHSFLSSCSNLPEKAFYGKITNKFNLSMFESIFFAHCKKSFAQEIFIEDKLDYTQLERLKSDPEFINAIQNRTSSTANVKARLERAVSILAEEV", "soluble on expression in E. coli": "not soluble"}, {"sequence": "MGSDKIHHHHHHMESSTNPWWVPEDFLAKLQKRVNPEKLAKYGLNDIRQAYFGIYLGIRLDDGSRAPQFLPYKPGFANHIFFLGRSGYGKTSIMRALAEGIYDYFYLNGRKALIIIIEAKYDKTKVKKLMTFREYIIQNFGYDYLLENYPWLENYLQEYSQKRPLLGKIGDFAFGWPNVEGIMTKVDSHHNQFQRHRLQPMIYPSTRIVFRPTRDLSLISRDNGMNVQVVEGKISYERLEVEDLTKFTYVNTQTNYMRILDIYWGQKKIRDPDRFLKEVIRNEYPPRSGETIEDILRSRDRTIANLRTLMNKLKSDRLFTKDPKEEFVKKLTPDRINVIDFSANSRLSDEEEAEIFNILVNYVVNEFALKKDIPVFIIVDEVQNIAKHRLGMAAINKIYREGRSLEISLISGTQYLSGLSKDLVRGATHIGIVGRLASERDAELLEEILDERFDTGEKPRSLQELFRIRKARRGKGKFSIDCEYTFTIEYRVPKTL", "soluble on expression in E. coli": "not soluble"}, {"sequence": "MGSDKIHHHHHHMESYKGNKTTRKQIVSSIQMDIIKNRKIGEKLPSESEYANLFGTARSTVQKALRDLETMQLIEKVQGKGSFVIFKHPKIEMFNFRGFSEYAHQIGATPITKLIKKKKIDNGHKMLLKRLRSIKINDEIAPLTFDESILSLDDFPGLDQYNFEKGSLYDVLRNKYNTYPAIANLEVIPVAPEEEISNLLRVSKGNPLLKVNGFVYDSNSEIMEKVGIIYSDQARFKFTLGI", "soluble on expression in E. coli": "not soluble"}, {"sequence": "MGSDKIHHHHHHMETGLLLTLLNKTTSLSVNQKTGIEVVSCTFNDLINTFQKAIPNTNIKGQLCIPEYQRPYVWKEKQINRLLDDFIEYYKNTDNDKPLFYLGSIIVHKDEGTLKIIDGQQRITTLLLINSIINKEIKSGIQYTSTTSINNIKRNFSYLKSVHAKDVFDYADTEVLNYIDFDKINVTLVVTATEDLAYTFFETQNTGGVRLSGSDIIKAHHLRAISSEKNINYQARKWEGIESEKIESIIQNLTKIRFWDNRNWRRFPFYRDEKGIKEVLIEEFTENTKHDKEDISFYYSAVKMEAGRAFQMHESNYKQLKQPLSDGNNTLDYINDYVHLHDVLFNRSKKDYRVSDAFYDFNEKLMHGNSGTLFLKELLEICIITYVSRFGFYRLFEASLWLYRSIYSLRVSSSRNVREDSIFKFVFENQFIDNIIEVYTVDELILYLKRFKYTFNTDNLGVKESKDKHIGSLNNYFNEFGKTEDFKKTPKAFDKAFLTAIVTKIKENNEQ", "soluble on expression in E. coli": "not soluble"}, {"sequence": "MGSDKIHHHHHHMETQQLLSIYPQATISPRPSVAKNMVCVAIDAGKYICIDTTNLSNRELSLLELLTHTKSNATTGDAWSEFLTGRHTTAPQTTAKKLQILQFRVHFTERHADRSQWLSAIADTFEHVLHRAFITADSGYLLLTESLTDTSADLASLLALIDNDFYTNTHLFIGSTHRSSQDLPTTFALEQQLFSQNQQDTIVTLSSSLLPFLVNQHQPELQALRNSLSLDSDNKQLIRALYHTQGNVRQAASKLFLHRNTLLYRIEKFERCNGLNLKNMDDLVYCYLLTLGQVINQVEK", "soluble on expression in E. coli": "not soluble"}, {"sequence": "MGSDKIHHHHHHMEVFCDVDDFCAVFIPEWEKTLLTDGTRKRQRAGRMTMSEVMTIIILFQMSHHRDFKNFYIGYLAHFYKSAFPNLLSYTRFLEVMPTALVPLCSDFTCLKSEPTGTEFVDSTRIKVCHNLRIHRHKTLAGLACRGKGTMGWFYGFKLHLIVNHQGGIVAAKVTPANVHDTKPMNEMVRSDMDKLYADKGFISKALSSELQEKGVTLVTNVRKNMKEKVMSLWDRAMLSRRFIIETINDQLKNISQIEHSRHRSGHGFMLNMIAGLIAYQLKDNKPQLNITSAEFNAIAVMAR", "soluble on expression in E. coli": "not soluble"}]}]}
